Twelve molecules from patent US20210284724A1 (I MAB BIOPHARMA US, published 2021) can be followed below.

For experiment [1], the target named is T1, human CXCL13 (human, UniProt O43927 23-109).
T1 construct: also called huCXCL13; rhCXCL13
T1 sequence (looked up): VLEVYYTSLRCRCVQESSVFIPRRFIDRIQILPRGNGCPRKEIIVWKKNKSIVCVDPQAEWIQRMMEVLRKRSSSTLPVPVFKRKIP
The experiment in a line: SPR Biacore 8K, Fab over immobilised CXCL13. As to the method: Among all humanized Fab samples, 71F4A3-VH2VL1, 71F4A3-VH1VL1 (Hz71F4), 71F4A3-VH1VL2, 71F4A3-VH3VL1, 411A11E9-VH1VL4, 411A11E9-VH3VL4, 411A11E9-VH2VL4, 411A11E9-VH3VL2, 411A11E9-VH1VL2, 21H12D9-VH1VL1, 21H12D9-VH2VL2, 21H12D9-VH3VL3, 21H12D9-VH1VL2, 64C10G1-VH1VL3, 64C10G1-VH1VL4, 64C10G1-VH1VL1, 64C10G1-VH1VL2 were selected to test affinity by Biacore 8K. 10 mM HEPES, 150 mM NaCl, 3 mM EDTA, 0.05% Tween-20, pH 7.4 served as running buffer and 10 mM glycine-HCl, pH2.0 served as regeneration buffer. CXCL13 protein were immobilized on Sensor Chip CM5 using amine coupling method (immobilization level ˜250RU). The serial concentrations of Fab (0-20 nM) were injected over immobilized CXCL13 at the flow rate of 30 μl/min. The dissociation phases were 600s.

In experiment [2] the target is T1, human CXCL13. The experiment is described as follows: cell-based blocking assay, CXCL13 to CXCR5 cells. In a few lines: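 To obtain IC50, a titration of humanized Fabs was tested against human CXCL13 binding to CHO-K1 cells expressing CXCR5. The cells (5×10⁴/well) were plated overnight at 37° C, fixed with 2% PFA and blocked with 1% BSA in PBST, then given 100 μl of Fab mixed with an equal volume of 0.3 μg/ml CXCL13 after a 30 min pre-incubation at room temperature. After 30 min on the cells and three PBST washes, bound CXCL13 was captured with 3 μg/ml human anti-CXCL13 antibody, detected with anti-human Fc-HRP and read at 450 nm.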

Experiment [3] deals with T1, human CXCL13. The experiment is described as follows: ELISA binding, Fab.
The target of experiment [4] is T1, human CXCL13. The experiment is described as follows: SPR Biacore, off-rate ranking of Fabs.
Experiment [5] concerns the target T1, human CXCL13. The experiment in a line: SPR Biacore 8K, Fab over immobilised CXCL13. As to the method:
HuCXCL13 binding affinity by Surface Plasmon Resonance. 411A11E9, 415A3D1, 64C10G1, 21H12D9, 329F2E1, 71F4A3 were selected to produce Fab and tested binding affinity. The binding of the antibodies to huCXCL13 was examined by Biacore 8K. 10 mM HEPES, 150 mM NaCl, 3 mM EDTA, 0.05% Tween-20, pH 7.4 served as running buffer and 10 mM glycine-HCl, pH2.0 served as regeneration buffer. CXCL13 protein was immobilized on Sensor Chip CM5 using amine coupling method (immobilization level ˜30RU). The serial concentrations of Fab (0-16 nM) were injected over immobilized CXCL13 at the flow rate of 30 μl/min. The dissociation phases were 600s.
This is another data set of the same source.

Experiment [6] deals with T1, human CXCL13. The experiment is described as follows: cell-based blocking ELISA, CXCL13 to CHO-K1-CXCR5. The protocol: This example tested the blocking of the anti-CXCL13 chimeric antibodies to CHO-K1-CXCR5 cells. Briefly, 5×10⁴ CHO-K1-CXCR5 cells were plated in 96-well plate with 100 μl of culture medium and incubated at 37° C. overnight. Cells were fixed with 100 μl of 2% PFA at RT for 1 hr after washing with PBS for 1 time. Samples were blocked with 1% BSA in PBST for 1 hr at RT. Antibodies were serial diluted from 50 μg/ml by 3-fold with 1% BSA/PBST and pre-incubated with equal volume of 0.3 μg/ml human CXCL13 for 30 min at RT. 100 μl of antibody-antigen complex was transferred into each cell wells for 30 min at RT. Samples were washed with 1×PBST for 3 times and 100 μl of 3 μg/ml of human Mab5261 antibody was added into each well to capture human CXCL13 and anti-human Fc-HRP was used to indirectly detect human CXCL13 when it bound to CHO-K1-CXCR5 cells.
Then read at 450 nm. […] Among all clones, 415A3D1, 64C10G1, 1H3A11, 414D10F5, 411A11E9, 21H12D9, 71F4A3, 329F2E1 show completely blocking activity and 408E3F3, 19H7E10, 339A6E7 appeared to be partial blockers.

Substitutions are numbered along the chain they refer to.

B1: 71F4A3-VH1VL1 (Hz71F4) Fab (Fab, V domains shown)
VH: EVQLVESGGGLVQPGGSLRLSCAASGIDFSRYWMSWVRQAPGKGLEWVAEINPDSSTINYAPSLKDRFTISRDNAKNSLYLQMNSLRAEDTAVYYCARQDDYEYYAMDYWGQGTTVTVSS
VL: DIQMTQSPSSLSASVGDRVTITCKASQDVNTGVAWYQQKPGKAPKLLIYSASYRYTGVPSRFSGSGSGTDFTFTISSLQPEDIATYYCQQYYSTPLTFGGGTKLEIK
notes: Humanized Fab, human gamma 1 and kappa constant domains
For B1, in experiment [1], the Kd amounted to 0.619 nM, the off-rate (koff) is 0.00125 s⁻¹ and the kon is 2.02e+06 M⁻¹ s⁻¹. Further, the IC50 in experiment [2] turned out to be 11.2 nM. The molecule also gave an EC50 in experiment [3] of 0.974 nM. Moreover, in experiment [4], the affinity, expressed as Kd, was 0.426 nM; the koff worked out at 0.00136 s⁻¹; the kon is 3.2e+06 M⁻¹ s⁻¹.

B2: 71F4A3-VH1VL2 (Fab, V domains shown)
VH: B1 VH
VL: B1 VL with L78V
notes: as for B1
As to B2, in experiment [1], the Kd was 0.628 nM, the koff was determined as 0.00116 s⁻¹ and the kon worked out at 1.84e+06 M⁻¹ s⁻¹. Besides, inhibition in experiment [2] was half-maximal at 10.7 nM (IC50). In experiment [3], this molecule displayed an EC50 of 1.18 nM. In experiment [4], this molecule registered a Kd of 0.516 nM, a koff of 0.00147 s⁻¹ and a kon of 2.85e+06 M⁻¹ s⁻¹.

B3: 71F4A3-VH2VL1 (Fab, V domains shown)
VH: B1 VH with E6Q
VL: B1 VL
notes: as for B1
B3: in experiment [1], the Kd came out at 0.853 nM, the koff came out at 0.00145 s⁻¹ and the kon worked out at 1.7e+06 M⁻¹ s⁻¹. The molecule further returned an IC50 in experiment [2] of 10.5 nM. Moreover, in experiment [3], the response was half-maximal at 0.819 nM (EC50). Besides, in experiment [4], the Kd worked out at 0.554 nM, the koff was found to be 0.00108 s⁻¹ and the kon is 1.95e+06 M⁻¹ s⁻¹.

B4: 415A3D1 chimeric Fab (Fab, V domains shown)
VH: EVKLLESGGGLVQAGGSMRLSCGAFGFTVTDFYINWIRQPAGKAPEWLGFMRNKANGYTTEYNPSVKGRFTISRNNTQNMPYLQMNTLRTEDTAIYYCARSRYNADDYYVGVMDVWGQGASVTVSS
VL: DIQMTQFPASLSASLGETVSIECLASEDIYNNLAWYQQKPGKSPQLLIYYTNSLQDGVPSRFSGTGSGTQYSLKINSLESEDAATYFCLQDSEYPWTFGGGTKLKLK
notes: Fab; label read as clone 415A3D1F4
In experiment [5], B4 came in with a Kd of 1.2 nM, a koff of 0.00306 s⁻¹ and a kon of 2.56e+06 M⁻¹ s⁻¹.

B5: 21H12D9 chimeric Fab (Fab, V domains shown)
VH: EVQLQQSGPVLVRPGASVKMSCKASGYTFTDYYMNWVKQSHGKSLEWIGVINPNNGGTTYKEKFKGKATLTVDKSSGTAYMELNSLTSEDSAVYYCARDDYDAGYWGQGTTLTVSS
VL: DIVMTQFQKFMSTTVGDRVSITCKASQNVDTAVAWYQHKPGQSPKLLIYSASHRYTGVPDRFTGSGSGTDFTLTISNVQSEDLADYFCQQYTDFPLTFGAGTKLELK
notes: Fab; also called 21VH12D9-Chimeric
As to B5, the Kd is 0.341 nM in experiment [5], 1.42 nM in experiment [1] and 1.18 nM in experiment [4]. In addition, the koff in experiment [5] was 0.000731 s⁻¹; in experiment [1], 0.00258 s⁻¹; in experiment [4], 0.00139 s⁻¹. The results for the kon in experiment [5], in experiment [1] and in experiment [4] were 2.14e+06 M⁻¹ s⁻¹, 1.82e+06 M⁻¹ s⁻¹ and 1.17e+06 M⁻¹ s⁻¹, respectively.

B6: 411A11E9 chimeric Fab (Fab, V domains shown)
VH: EVQLVESGGGLVQPGGSLKLSCVVSGFTFSDYYMAWVRQTPTKGLEWVASINYDGGDTYYRDSVKGRFTVSRNNAKSSLFLQMDSLRSEDTATYYCKTEEDYDGSYVMDAWGQGASVIVSS
VL: DIQMTQSPSFLSASVGDRVTISCKASQNINKELTWYQQKLGKAPKRLIYNTNILQTGIPSRFSGSGSNTDYTLTISSLQPEDFATYFCLQQSSLYTFGAGTKLELK
notes: Fab
B6: in experiment [5], the Kd came out at 0.158 nM, the koff is 0.000326 s⁻¹ and the kon was determined as 2.06e+06 M⁻¹ s⁻¹. In experiment [1], this molecule displayed an equilibrium dissociation constant (Kd) of 0.74 nM, a koff of 0.00156 s⁻¹ and a kon of 2.11e+06 M⁻¹ s⁻¹. In experiment [4], this molecule gave a Kd of 0.708 nM, a koff of 0.00287 s⁻¹ and a kon of 4.05e+06 M⁻¹ s⁻¹.

B7: 64C10G1-VH1VL3 (Fab, V domains shown)
VH: EVQLVESGGGLVQPGGSLRLSCAASGFTFSSYAMSWVRQAPGKGLEWVATISDGGSDAYYPDNVKGRFTISRDNAKNSLYLQMNSLRAEDTAVYYCARDYYGSGYEDSPMDYWGQGTLVTVSS
VL: DIQMTQSPSSLSASVGDRVTITCKASQDINKYIAWYQQKPGKAPKLLIHYTSTLQPGIPSRFSGSGSGTDFTFTISSLQPEDFATYYCLQYDNLYTFGGGTKLEIK
notes: Humanized Fab, human gamma 1 and kappa constant domains; also called 64C10G1-VH1VL3(Fab)
In experiment [1], B7 displayed a Kd of 2.98 nM, a koff of 0.00543 s⁻¹ and a kon of 1.82e+06 M⁻¹ s⁻¹. In addition, in experiment [2], the midpoint of inhibition, the IC50, lay at 7.69 nM. Further, in experiment [3], the response was half-maximal at 1.07 nM (EC50). In addition, in experiment [4], the Kd was found to be 2.98 nM, the koff stood at 0.00543 s⁻¹ and the kon turned out to be 1.82e+06 M⁻¹ s⁻¹.

B8: 64C10G1-VH1VL4 (Fab, V domains shown)
VH: B7 VH
VL: B7 VL with F71Y
notes: Humanized Fab, human gamma 1 and kappa constant domains; also called 64C10G1-VH1VL4(Fab)
In experiment [1], B8 displayed a Kd of 3.68 nM, a koff of 0.00713 s⁻¹ and a kon of 1.94e+06 M⁻¹ s⁻¹. This molecule also came in with an IC50 in experiment [2] of 6.88 nM. The molecule further gave an EC50 in experiment [3] of 0.784 nM. In experiment [4], this molecule showed a Kd of 3.68 nM, a koff of 0.00713 s⁻¹ and a kon of 1.94e+06 M⁻¹ s⁻¹.

B9: 64C10G1-VH1VL2 (Fab, V domains shown)
VH: B7 VH
VL: B7 VL with I58V
notes: Humanized Fab, human gamma 1 and kappa constant domains; also called 64C10G1-VH1VL2(Fab)
In experiment [1], B9 registered a Kd of 1.92 nM, a koff of 0.00515 s⁻¹ and a kon of 2.69e+06 M⁻¹ s⁻¹. This molecule gave an IC50 in experiment [2] of 7.02 nM. In experiment [3], this molecule registered an EC50 of 1.23 nM. Also, in experiment [4], the Kd is 1.92 nM, the koff stood at 0.00515 s⁻¹ and the association rate constant (kon) was 2.69e+06 M⁻¹ s⁻¹.

B10: 64C10G1-VH1VL1 (Fab, V domains shown)
VH: B7 VH
VL: B7 VL with H49Y, I58V, F83I
notes: Humanized Fab, human gamma 1 and kappa constant domains; also called 64C10G1-VH1VL1(Fab)
As for B10, in experiment [1], the affinity, expressed as Kd, was 5.89 nM; the koff came out at 0.0255 s⁻¹; the kon was determined as 4.33e+06 M⁻¹ s⁻¹. The IC50 in experiment [2] was 7.79 nM. For the same molecule, in experiment [3], the EC50 came out at 1.29 nM. In experiment [4], this molecule yielded a Kd of 5.89 nM, an off-rate (koff) of 0.0255 s⁻¹ and an on-rate constant (kon) of 4.33e+06 M⁻¹ s⁻¹.

B11: 408E3F3 chimeric human IgG1 antibody (antibody, V domains shown)
VH: HVTLRESGPGVLQPSKTLSLTCSFSGFSLSTSAMVVSWIRQSSGMSLEWLAAIDWEGDKYYNPSLESRLTVSRDISDTQVFLRITSVDVADTATYYCAVMSSADSHSVLDAWGQGVSVTVSS
VL: DIKMTQSPSFLSASVGDRVTINCKASQNIHNYLNWYQQKFGEAPRLLIYNTNNLQTGIPSRFSGSGSGTDFTLTISSLQPEDVATYFCLQHSSSLTFGSGTKLEIN
notes: Chimeric human IgG1
B11 showed a concentration for half-maximal inhibition (IC50) in experiment [6] of 7.64 µg/mL.

B12: 19H7E10 chimeric human IgG1 antibody (antibody, V domains shown)
VH: EVQLQQSGPELVKPGASVKISCQASGYAFSDYYMNWVKQSHGKRLEWIGDINPNNDGTTYNQKFKDKATLTVDKSSSTAYMDLRSLTSEDSAVYYCARLSWSFFAMDYWGQGTSVTVSS
VL: DIVMTQSHKFMSTSVGDRVSITCKASQDVSSGVAWYQQKPGQSPKVLIYSASHRHTGVPDRFTASGSGTDFTFTISSVQAEDLAVYYCQQYYNTPWTFGGGTKLEIK
notes: Chimeric human IgG1
In experiment [6], B12 displayed an IC50 of 15.1 µg/mL.
